This note sets out measurements from PMC12910678 (Nature, 2021).

The target of this assay is SARS-CoV-2 RBD (residues 319-591) (SARS-CoV-2, Wuhan-Hu-1 (MN908947), UniProt P0DTC2). Kind of assay: SPR.

B1: C121 IgG (antibody, V domains shown)
VH: not shown
VL: QSALTQPASVSGSPGQSITISCTGTSSDVGSYNLVSWYQQHPGKAPKLMIYEGSKRPSGVSNRFSGSKSGNTASLTISGLQAEDEADYYCCSYAGSSTLVFGGGTKLTVL
Take B1: the binding result was “binds”.
